Data set [1] in a line: Calculation of free payload:ADC following ADC administration. As for the experimental part: Antibody drug conjugates with thiol-malimide conjugation undergo deconjugation following administration. To assess this deconjugation, free payload: ADC was calculated rather than reverse, because for completely stable antibody, ADC:free payload would be infinity.
Antibody drug conjugates with thiol-malimide conjugation undergo deconjugation following administration. To assess this deconjugation, free payload: ADC was calculated for specific antibody drug conjugates including Trastuzumab, Polatuzumab, Enfortumab and Tisotumab.

The nature of data set [2]: Post-injection bleb volume, area, height - caliper measurement. The data set is classed as in vivo, Yucatan miniature pig (Sus scrofa domestica). The following applies: Example 8: dupilumab 2 mL; dupilumab + rHuPH20 5 mL; T0. As for the experimental part:
(§1) The needle was inserted vertically into the marked injection site and the HVAI held in place by hand. Target needle insertion depth was ˜10 mm. Injections were timed using a stopwatch. Upon completion of the injection the needle was removed and the HVAI device discarded. Test solution back-leakage was then absorbed to a tared eye-spear for 30 seconds on the injection site and the weight of the eye spear was measured using an analytical balance. The margins of the injection site bleb were marked with a permanent marker and measured for length, width, and height using a digital caliper and recorded then photographed with the standard and 3D cameras. Caliper measurements and photographs were taken immediately post-injection. Local injection sites were qualitatively assessed and graded daily for erythema severity, swelling size appearance, and firmness, using a scoring system described in Table 4 Table 5, and Table 6, respectively.
Assessment of Local Swelling Volume and Area Using Caliper Measurement and 3D Imaging. Volume and area of post-injection swelling were measured using both caliper measurement and 3D camera image analysis. For caliper measurements a digital caliper was utilized to measure length, width and height of the bleb that formed post-injection. The length and width are defined as the edge to edge measurements of the bleb (i.e., diameter) along their longest axes. These values were manually recorded, and the volume determined using the formula for half of an ellipsoid Vol=(⅔)*π*A*B*C where A=Length/2, B=Width/2 and C=Height.
Assessment of Post-Injection Bleb Volume, Area and Height (Caliper Measurements). The local injection site swelling (bleb) was marked and measured using a digital caliper.

A short description of data set [3]: Qualitative assessment of local injection sites (erythema, swelling size, induration). Format: in vivo, Yucatan miniature pig (Sus scrofa domestica). Particulars: Example 8: dupilumab 2 mL; dupilumab + rHuPH20 5 mL; T0, three evaluators. As for the experimental part: as §1
Approximately, 24 hours post-dosing of the first injection, each animal was re-anesthetized, and injection sites assessed for erythema, induration and swelling, then photographed and returned to its cage.

A short description of data set [4]: Calculation of drug to antibody ratio (DAR). Particulars: for ADC:free Ab / free Ab:ADC: after adjustment factor. From the text: The Drug-to-Antibody Ratio (DAR) is a critical parameter in antibody drug conjugate development, representing the average number of drug molecules attached to each antibody molecule.
Where [5] appears, read: Concentration (weight/mL) basis, Unconjugated MMAE/ADC over 28 days.
Where [6] appears, read: Molar basis, Unconjugated MMAE/ADC over 28 days.
The mark [7] stands for this setting: Molar basis, Using molecular weight for the entire linker, MMAE/ADC over 28 days.
Where [8] appears, read: Concentration (weight/mL) basis, unconjugated MMAE/antibody conjugated MMAE over 21 days.
[9] abbreviates: Molar basis, Using molecular weight for the entire linker.
Where [10] appears, read: Molar basis, different tumor (line after the one using molecular weight for the entire linker).
Where [11] appears, read: Molar basis, unconjugated MMAE/antibody conjugated MMAE over 21 days.
Setting [12] is: Concentration (weight/mL) basis.
[13] abbreviates: Molar basis, second line, Unconjugated MMAE/ADC over 21 days.

Enfortumab vedotin (Padcev): the “free payload: ADC, AUC” value is reported as 0.08% in data set [1] (setting [5]), 16.4% in data set [1] (setting [6]) and 8.9% in data set [1] (setting [7]). For the same substance, the “free payload: ADC, Cmax” value in data set [1] (setting [5]) is on record as 0.02%; in data set [1] (setting [6]), 4.2%; in data set [1] (setting [7]) it was 2.3%.

Take Polatuzumab vedotin (Polivy): the “free payload: ADC, AUC” value in data set [1] (setting [8]) is reported as 1.52%; in data set [1] (setting [9]), 173.1%; in data set [1] (Molar basis, different tumor), 257.1%; in data set [1] (setting [10]), 140.2%; in data set [1] (setting [11]), 317.5%. Further, the “free payload: ADC, Cmax” value in data set [1] (setting [8]) is 0.46%; in data set [1] (setting [9]) it was 52.8%; in data set [1] (Molar basis, different tumor) it was 87.2%; in data set [1] (setting [10]), 47.5%; in data set [1] (setting [11]) it was 96.9%.

Take Tisotumab vedotin (Tivdak): the “free payload: ADC, AUC” value was 0.09% in data set [1] (setting [12]), 18.5% in data set [1] (Molar basis) and 10.1% in data set [1] (setting [13]). Further, the “free payload: ADC, Cmax” value was 0.01% in data set [1] (setting [12]), 3.1% in data set [1] (Molar basis) and 1.7% in data set [1] (setting [13]).

Regarding dupilumab, in data set [2], the “Post-injection bleb Area, caliper (Mean ± SEM)” value is recorded as 13.1 ± 1.4 and the “Post-injection bleb Volume, caliper (Mean ± SEM)” value is recorded as 7.0 ± 1.8. Further, in data set [3], the “Induration Score (Mean ± SEM)” value is on record as 2.4 ± 0.4 and the “Swelling Score (Mean ± SEM)” value stood at 1.4 ± 0.2.

For the substance mirvetuximab soravtansine, in data set [4] (Day 1), the “% DAR remaining (which may be ~ADC/ total Ab)” value is recorded as 88.4%, the “% DAR remaining after adjustment factor to allow for variability (line without head)” value is 70.7%, the “ADC:free Ab” value is recorded as 241.3% and the “free Ab:ADC” value is reported as 41.4%. For the same substance, in data set [4] (Day 7), the “% DAR remaining (which may be ~ADC/ total Ab)” value was 32.6%, the “% DAR remaining after adjustment factor to allow for variability (line without head)” value is 26.0%, the “ADC:free Ab” value was 35.2% and the “free Ab:ADC” value is recorded as 283.9%.

(Values after patent US20260069707A1, “COMBINATION THERAPY WITH ANTIBODY-DRUG CONJUGATES AND HYALURONIDASES” (HALOZYME, INC., priority 2024, published 2026).)
